Assay results reported in the supplement of paper PMC9112550, “Optimization of the antimicrobial peptide Bac7 by deep mutational scanning” (BMC Biology, 2022).

Tested on: Escherichia coli TOP10
Experiment: shrunken log2 fold change of peptide-encoding DNA abundance (4.5 h post-induction vs induction); higher = less antimicrobial activity (less host growth inhibition)
Settings: time post-induction: 4.5 h; library: site-saturation at positions 5, 18, 19, 20
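Also: peptides expressed intracellularly from a pBAD plasmid library in pooled LB shake-flask culture, induced with 0.3% L-arabinose, DNA abundance read by NGS, three biological replicates, DESeq2 with apeglm shrinkage.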

Row | Sequence | shrunken log2 fold change
1 | RRIRDRPPRLPRPRPRPLSQPRP | 0.483
2 | RRIRYRPPRLPRPRPRPAICPRP | 0.0426
3 | RRIRHRPPRLPRPRPRPSGQPRP | -0.17
4 | RRIRDRPPRLPRPRPRPRKFPRP | -0.0848
5 | RRIRARPPRLPRPRPRPSLQPRP | 0.193
6 | RRIRWRPPRLPRPRPRPTMTPRP | 0.328
7 | RRIRIRPPRLPRPRPRPADKPRP | -0.194
8 | RRIRRRPPRLPRPRPRPQIKPRP | -0.155
9 | RRIRNRPPRLPRPRPRPMEVPRP | -0.052
10 | RRIRQRPPRLPRPRPRPMWPPRP | 0.269
11 | RRIRKRPPRLPRPRPRPYMGPRP | -0.00674
12 | RRIRCRPPRLPRPRPRPPWFPRP | -0.00887
13 | RRIRIRPPRLPRPRPRPLEIPRP | -0.0939
14 | RRIRDRPPRLPRPRPRPSMCPRP | 0.123
15 | RRIRNRPPRLPRPRPRPTCKPRP | -0.0431
16 | RRIRYRPPRLPRPRPRPYYSPRP | 0.0106
17 | RRIRARPPRLPRPRPRPDMTPRP | 0.723
18 | RRIRTRPPRLPRPRPRPELDPRP | 0.641
19 | RRIRRRPPRLPRPRPRPDTYPRP | -0.193
20 | RRIRLRPPRLPRPRPRPLIRPRP | -0.547
21 | RRIRGRPPRLPRPRPRPGMIPRP | 0.309
22 | RRIRDRPPRLPRPRPRPKGCPRP | 0.0262
23 | RRIRPRPPRLPRPRPRPATQPRP | 0.133
24 | RRIRARPPRLPRPRPRPVQAPRP | 0.312
25 | RRIRIRPPRLPRPRPRPYVKPRP | -0.881

Row | Sequence | shrunken log2 fold change
26 | RRIRLRPPRLPRPRPRPRPLPRP | 0.579
27 | RRIRVRPPRLPRPRPRPMIWPRP | -0.179
28 | RRIRNRPPRLPRPRPRPKSPPRP | 0.205
29 | RRIRARPPRLPRPRPRPTRSPRP | 0.258
30 | RRIRQRPPRLPRPRPRPLVFPRP | -0.0658
31 | RRIRARPPRLPRPRPRPKSLPRP | -0.109
32 | RRIRMRPPRLPRPRPRPEITPRP | 3.07
33 | RRIRGRPPRLPRPRPRPCNAPRP | 1.45
34 | RRIRCRPPRLPRPRPRPMWRPRP | 0.276
35 | RRIRKRPPRLPRPRPRPKHWPRP | 0.162
36 | RRIRGRPPRLPRPRPRPYTKPRP | -0.216
37 | RRIRLRPPRLPRPRPRPWKHPRP | -0.0177
38 | RRIRDRPPRLPRPRPRPPVCPRP | 0.452
39 | RRIRHRPPRLPRPRPRPQFHPRP | -0.153
40 | RRIRFRPPRLPRPRPRPADGPRP | 0.183
41 | RRIRTRPPRLPRPRPRPQSVPRP | -0.104
42 | RRIRHRPPRLPRPRPRPPGTPRP | 0.0679
43 | RRIRYRPPRLPRPRPRPFHAPRP | 0.207
44 | RRIRYRPPRLPRPRPRPWINPRP | -0.803
45 | RRIRLRPPRLPRPRPRPSYKPRP | -0.456
46 | RRIRSRPPRLPRPRPRPLNVPRP | -0.0872
47 | RRIRQRPPRLPRPRPRPQYPPRP | -0.199
48 | RRIRQRPPRLPRPRPRPWHTPRP | -0.169
49 | RRIRKRPPRLPRPRPRPTAVPRP | 0.284
50 | RRIRNRPPRLPRPRPRPYRNPRP | -0.0239

Row | Sequence | shrunken log2 fold change
51 | RRIRDRPPRLPRPRPRPRYSPRP | -0.662
52 | RRIRRRPPRLPRPRPRPCGMPRP | 0.114
53 | RRIRERPPRLPRPRPRPNRKPRP | -0.0495
54 | RRIRPRPPRLPRPRPRPCNTPRP | -0.333
55 | RRIRDRPPRLPRPRPRPYWWPRP | 0.021
56 | RRIRNRPPRLPRPRPRPNYTPRP | -0.359
57 | RRIRKRPPRLPRPRPRPIYGPRP | -0.00172
58 | RRIRNRPPRLPRPRPRPIQSPRP | -0.216
59 | RRIRSRPPRLPRPRPRPWCNPRP | -0.116
60 | RRIRYRPPRLPRPRPRPNAFPRP | -0.158
61 | RRIRIRPPRLPRPRPRPGKVPRP | -0.621
62 | RRIRGRPPRLPRPRPRPVAAPRP | 1.73
63 | RRIRERPPRLPRPRPRPKTEPRP | -0.0578
64 | RRIRHRPPRLPRPRPRPGENPRP | -0.00146
65 | RRIRIRPPRLPRPRPRPAEVPRP | -0.041
66 | RRIRRRPPRLPRPRPRPGAMPRP | 0.337
67 | RRIRERPPRLPRPRPRPIASPRP | 0.129
68 | RRIRTRPPRLPRPRPRPRSTPRP | 0.377
69 | RRIRRRPPRLPRPRPRPKGPPRP | 0.465
70 | RRIRARPPRLPRPRPRPKKCPRP | 0.0283
71 | RRIRNRPPRLPRPRPRPGCAPRP | 0.426
72 | RRIRRRPPRLPRPRPRPNTNPRP | -0.22
73 | RRIRTRPPRLPRPRPRPVCPPRP | 0.186
74 | RRIRPRPPRLPRPRPRPMRWPRP | 0.707
75 | RRIRLRPPRLPRPRPRPLQAPRP | 0.128

Row | Sequence | shrunken log2 fold change
76 | RRIRHRPPRLPRPRPRPPYDPRP | -0.0114
77 | RRIRRRPPRLPRPRPRPNNWPRP | 0.612
78 | RRIRRRPPRLPRPRPRPLDKPRP | -0.152
79 | RRIRLRPPRLPRPRPRPVYLPRP | -1.14
80 | RRIRVRPPRLPRPRPRPWKIPRP | -0.0261
81 | RRIRTRPPRLPRPRPRPPVNPRP | 0.0698
82 | RRIRTRPPRLPRPRPRPVYPPRP | -0.00118
83 | RRIRMRPPRLPRPRPRPIFTPRP | -0.0423
84 | RRIRNRPPRLPRPRPRPIMVPRP | 0.00732
85 | RRIRTRPPRLPRPRPRPQVTPRP | 0.304
86 | RRIRERPPRLPRPRPRPTQHPRP | 0.239
87 | RRIRPRPPRLPRPRPRPPLWPRP | 1.75
88 | RRIRMRPPRLPRPRPRPQITPRP | -0.166
89 | RRIRPRPPRLPRPRPRPAARPRP | 0.727
90 | RRIRFRPPRLPRPRPRPVMFPRP | -0.218
91 | RRIRGRPPRLPRPRPRPNDGPRP | 0.0995
92 | RRIRQRPPRLPRPRPRPWVWPRP | 0.0723
93 | RRIRTRPPRLPRPRPRPNYDPRP | -0.493
94 | RRIRCRPPRLPRPRPRPYKHPRP | -1.04
95 | RRIRTRPPRLPRPRPRPWVHPRP | -0.0467
96 | RRIRQRPPRLPRPRPRPFGAPRP | -0.0476
97 | RRIRKRPPRLPRPRPRPNEYPRP | 0.0869
98 | RRIRGRPPRLPRPRPRPRFEPRP | 0.881
99 | RRIRWRPPRLPRPRPRPTVCPRP | 0.00145
100 | RRIRWRPPRLPRPRPRPKEEPRP | 1.07

Row | Sequence | shrunken log2 fold change
101 | RRIRHRPPRLPRPRPRPLYLPRP | -0.4
102 | RRIRVRPPRLPRPRPRPMHVPRP | 0.0592
103 | RRIRGRPPRLPRPRPRPSKCPRP | -0.313
104 | RRIRMRPPRLPRPRPRPHVRPRP | 0.231
105 | RRIRVRPPRLPRPRPRPSRAPRP | 0.152
106 | RRIRSRPPRLPRPRPRPKNVPRP | -0.29
107 | RRIRVRPPRLPRPRPRPDSHPRP | -0.111
108 | RRIRTRPPRLPRPRPRPKATPRP | -0.146
109 | RRIRDRPPRLPRPRPRPNWAPRP | 0.00788
110 | RRIRVRPPRLPRPRPRPDTQPRP | 0.0912
111 | RRIRGRPPRLPRPRPRPCAAPRP | 1.89
112 | RRIRKRPPRLPRPRPRPFMRPRP | 0.24
113 | RRIRVRPPRLPRPRPRPTRNPRP | 0.0987
114 | RRIRMRPPRLPRPRPRPLTNPRP | 0.0401
115 | RRIRTRPPRLPRPRPRPHYWPRP | -0.25
116 | RRIRIRPPRLPRPRPRPSAKPRP | -0.0328
117 | RRIRPRPPRLPRPRPRPDRQPRP | 0.099
118 | RRIRLRPPRLPRPRPRPDPSPRP | 0.0199
119 | RRIRARPPRLPRPRPRPPVNPRP | 0.36
120 | RRIRMRPPRLPRPRPRPSMHPRP | 0.377
121 | RRIRSRPPRLPRPRPRPFNDPRP | -0.223
122 | RRIRGRPPRLPRPRPRPTIQPRP | 0.54
123 | RRIRFRPPRLPRPRPRPCCEPRP | -0.414
124 | RRIRPRPPRLPRPRPRPEYAPRP | 0.0857
125 | RRIRARPPRLPRPRPRPMMGPRP | 0.082

Row | Sequence | shrunken log2 fold change
126 | RRIRERPPRLPRPRPRPEHFPRP | -0.00973
127 | RRIRDRPPRLPRPRPRPEQYPRP | 0.215
128 | RRIRDRPPRLPRPRPRPCRWPRP | -0.537
129 | RRIRMRPPRLPRPRPRPVFEPRP | 0.59
130 | RRIRIRPPRLPRPRPRPCSVPRP | -0.466
131 | RRIRLRPPRLPRPRPRPDDWPRP | 0.044
132 | RRIRDRPPRLPRPRPRPPETPRP | 0.743
133 | RRIRERPPRLPRPRPRPSLEPRP | -0.199
134 | RRIRSRPPRLPRPRPRPHGNPRP | -0.00459
135 | RRIRWRPPRLPRPRPRPQCTPRP | 0.11
136 | RRIRQRPPRLPRPRPRPSWVPRP | -0.0385
137 | RRIRYRPPRLPRPRPRPCGVPRP | 2.83
138 | RRIRQRPPRLPRPRPRPGAKPRP | 0.177
139 | RRIRWRPPRLPRPRPRPHNHPRP | -0.707
140 | RRIRFRPPRLPRPRPRPNYHPRP | -0.758
141 | RRIRFRPPRLPRPRPRPMDDPRP | -0.182
142 | RRIRHRPPRLPRPRPRPKVHPRP | -0.0663
143 | RRIRNRPPRLPRPRPRPHATPRP | 0.00661
144 | RRIRDRPPRLPRPRPRPKPDPRP | 0.306
145 | RRIRVRPPRLPRPRPRPLSMPRP | -0.0717
146 | RRIRARPPRLPRPRPRPNAAPRP | 1.13
147 | RRIRDRPPRLPRPRPRPRIKPRP | -0.454
148 | RRIRHRPPRLPRPRPRPTCDPRP | -0.011
149 | RRIRYRPPRLPRPRPRPTFYPRP | -0.803
150 | RRIRHRPPRLPRPRPRPSFLPRP | -0.729
